Patent US20210032353A1 (NATIONAL HEALTH RESEARCH INSTITUTES, published 2021)

T1: VEGFR3 IgD3-4 (UniProt P35916 219-415, limits assumed)
T1 construct: domain: IgD3-4; also called VEGFR3-ED Ig D3-4-myc; not shown: myc tag (pCMV6-XL6-myc vector)
T1 sequence (looked up): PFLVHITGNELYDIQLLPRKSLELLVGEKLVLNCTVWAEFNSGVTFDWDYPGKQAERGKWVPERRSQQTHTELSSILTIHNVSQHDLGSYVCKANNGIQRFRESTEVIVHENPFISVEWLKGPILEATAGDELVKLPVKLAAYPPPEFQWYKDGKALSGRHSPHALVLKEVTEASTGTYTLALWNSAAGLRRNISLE

T2: VEGFR3 (Flt-4)-IgD 4-7 (UniProt P35916 331-764, limits assumed)
T2 construct: domain: IgD4-7; The methods describe no D4-7 construct of VEGFR3; tag and expression host are unknown; also called recombinant IgD4-7 of VEGFR3
T2 sequence (looked up): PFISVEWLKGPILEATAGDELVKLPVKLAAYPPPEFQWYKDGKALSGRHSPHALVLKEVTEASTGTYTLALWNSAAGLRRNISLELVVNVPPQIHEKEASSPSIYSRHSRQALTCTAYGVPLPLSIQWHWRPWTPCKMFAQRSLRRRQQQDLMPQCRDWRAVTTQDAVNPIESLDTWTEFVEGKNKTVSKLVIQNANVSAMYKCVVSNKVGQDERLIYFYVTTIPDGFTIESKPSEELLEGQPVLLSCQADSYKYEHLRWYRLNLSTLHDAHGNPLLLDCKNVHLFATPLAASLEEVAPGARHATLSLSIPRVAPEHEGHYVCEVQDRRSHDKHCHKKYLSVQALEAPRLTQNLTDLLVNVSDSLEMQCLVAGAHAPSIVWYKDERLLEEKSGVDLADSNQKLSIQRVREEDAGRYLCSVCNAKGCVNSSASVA

T3: VEGFR3 (Flt-4)-IgD 6-7 (UniProt P35916 555-764, limits assumed)
T3 construct: domain: IgD6-7; also called R3-IgD6-7; VEGFR3-ED Ig D6-7-myc; not shown: myc tag (pCMV6-XL6-myc vector)
T3 sequence (looked up): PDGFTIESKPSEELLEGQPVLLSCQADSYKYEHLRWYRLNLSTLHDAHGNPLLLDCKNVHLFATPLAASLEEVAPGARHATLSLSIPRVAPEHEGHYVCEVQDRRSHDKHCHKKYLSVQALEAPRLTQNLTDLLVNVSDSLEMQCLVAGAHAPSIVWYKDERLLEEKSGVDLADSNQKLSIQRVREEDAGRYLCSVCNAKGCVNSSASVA


Assays:
[1] = biological target: T1, VEGFR3 IgD3-4; assay: native gel electrophoresis and immunoblot
[2] = biological target: T4, VEGFR2 (KDR)-IgD 4-7 (human, UniProt P35968 328-753); assay: Biacore; antibody as flow analyte, KDR-IgD4-7 as ligand
T4 construct: domain: IgD4-7; Expressed in E. coli; also called recombinant IgD4-7 of VEGFR2; VEGFR2-ED Ig D4-7

[3] = biological target: T2, VEGFR3 (Flt-4)-IgD 4-7; assay: Biacore; antibody as flow analyte, Flt 4-IgD4-7 as ligand
[4] = biological target: T3, VEGFR3 (Flt-4)-IgD 6-7; assay: Biacore; antibody as flow analyte, Flt 4-IgD6-7 as ligand
[5] = biological target: T5, R2-IgD4-5 (human, UniProt P35968); assay: cell-based competitive ELISA: R2C7-1 absorbed with the soluble domains, then bound to fixed 293T/VEGFR2 cells, OD405
T5 construct: recombinant fragment; also called immunoglobin-like domains 4-5 of VEGFR2
Procedure: The optimal concentration of R2C7-1 and R2C9-11 mAbs (200 μg/mL and 50 μg/mL, respectively) were absorbed with the designated doses of the individual immunoglobin-like domains of VEGFR2 (R2-IgDs) antigens. After, the fixed 293T/VEGFR2 cells were incubated with the absorbed antibodies at 37° C. for 30 min. The bound antibodies were probed with goat-anti-mouse IgG conjugated with HRP, visualized by addition of ABTS, and measured at OD₄₀₅ using the SpectraMax microplate reader. Data are represented as means±S.D. of the percentage of isotype control (CTL) in triplicate. The potential epitope locations of R2C7-1 (upper) and R2C9-11 (lower) on the VEGFR2 antigen are indicated by black lines spanning IgD6 and IgD7 in the schematics.
To define the recognition epitopes of R2C7-1 and R2C9-11 antibodies, cell-based competitive enzyme-linked immunosorbent assay (ELISA) was performed. HEK293T/VEGFR2 transfectants (5 X×10⁴/well) were coated and fixed on 96-well plates. The optimal concentrations, the highest concentration of the log phase, of R2C7-1 and R2C9-11 antibodies for binding to the cells, were determined using a standard ELISA procedure (data not shown). […]
The epitopes of R2C7-1 and R2C9-11 anti-VEGFR2 antibodies were determined by cell-based competitive ELISA. […]

T4 sequence (P35968 328-753 limits assumed): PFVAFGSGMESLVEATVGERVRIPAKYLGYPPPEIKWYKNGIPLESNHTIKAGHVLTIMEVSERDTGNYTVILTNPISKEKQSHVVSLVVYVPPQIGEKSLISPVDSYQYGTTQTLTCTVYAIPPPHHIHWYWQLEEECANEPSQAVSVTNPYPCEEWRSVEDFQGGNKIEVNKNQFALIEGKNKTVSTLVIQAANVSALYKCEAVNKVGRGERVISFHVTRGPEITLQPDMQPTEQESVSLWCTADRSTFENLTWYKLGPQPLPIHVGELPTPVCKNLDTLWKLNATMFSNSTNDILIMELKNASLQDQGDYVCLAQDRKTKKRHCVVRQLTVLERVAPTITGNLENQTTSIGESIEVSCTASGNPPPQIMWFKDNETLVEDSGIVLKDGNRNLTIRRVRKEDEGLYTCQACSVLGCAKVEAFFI
T5 sequence (P35968 328-548 limits assumed): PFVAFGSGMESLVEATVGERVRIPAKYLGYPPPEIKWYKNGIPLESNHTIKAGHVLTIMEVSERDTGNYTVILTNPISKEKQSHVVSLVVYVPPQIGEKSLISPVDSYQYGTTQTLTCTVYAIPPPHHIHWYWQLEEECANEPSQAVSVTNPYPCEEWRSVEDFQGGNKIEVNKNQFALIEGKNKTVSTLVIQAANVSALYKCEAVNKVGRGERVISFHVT

binding result [1]	koff [2] [s⁻¹]	koff [3] [s⁻¹]	kon [3] [M⁻¹ s⁻¹]	koff [4] [s⁻¹]	kon [4] [M⁻¹ s⁻¹]	Binder	binding result [5]
no binding	0.0024	0.0049	1.5e+06	0.0037	280000	R2C7-1 monoclonal antibody (antibody, V domains shown, Mouse monoclonal antibody purified from hybridoma supernatant; An IgG2a isotype antibody served as its control; also called R2C7-1 mAb) VH: EVQLQQSGPELVKPGASVKISCKASGYSFTDYFINWVIQRHGKSLEWVGRINPYNGGSFYNQKFKDKATLTVDKSSNIAHMELRSLASEDSAIYYCARSGGNGYDYWGQGTTLTVSS VL: DIVMTQAAPSVPVIPGESVSISCRSSKSLLHSNGNTYLYWFLQRPGQSPQLLIYRMSNLASGVPDRFSGSGSGTAFTLRISRVEAEDVGVYYCMQHLEYPYTFGGGTKVEIK	no binding (tested: 20 (unit not printed on the sheet))
	1.3e-05	0.0034	3.2e+06			R2C9-11 monoclonal antibody (antibody, V domains shown, Mouse monoclonal antibody purified from hybridoma supernatant; An IgG2a isotype antibody served as its control; also called R2C9-11 mAb) VH: QVQLQQPGAELVKPGASVKLSCKASGYTFTSYWMHWVKQRPGQGLEWIGEINPSNGRTNYNEKFKSKATLTVDKSSSTAYMQLSSLTSEDSAVYYCANLYFDVWGAGTTVTVSS VL: DIVMTQSPSSLSVSAGEKVTMSCKSSQNLLNSGNQKYYLAWYQQKPGQPPKLLIYGASIRESGVPDRFIGSGSGTDFTLTISSVQAEDLAVYFCQSDHSYPYTFGGGTKLEIK	
